# T1: PCLO, Q9Y6V0
# T1 sequence (Q9Y6V0 4491-4600, limits assumed, looked up): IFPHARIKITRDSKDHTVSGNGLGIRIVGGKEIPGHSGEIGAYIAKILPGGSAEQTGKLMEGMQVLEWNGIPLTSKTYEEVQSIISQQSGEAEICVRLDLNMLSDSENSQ
# T2: TJP3_3, O95049
# T2 sequence (O95049 375-456, limits assumed, looked up): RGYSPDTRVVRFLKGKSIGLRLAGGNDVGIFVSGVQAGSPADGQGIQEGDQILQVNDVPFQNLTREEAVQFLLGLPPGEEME
# T3: MPP2, Q14168
# T3 sequence (Q14168 180-250, limits assumed, looked up): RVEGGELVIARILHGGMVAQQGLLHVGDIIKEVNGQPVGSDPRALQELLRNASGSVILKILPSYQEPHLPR
# T4: TIAM2, Q8IVF5
# T4 sequence (Q8IVF5 885-986, limits assumed, looked up): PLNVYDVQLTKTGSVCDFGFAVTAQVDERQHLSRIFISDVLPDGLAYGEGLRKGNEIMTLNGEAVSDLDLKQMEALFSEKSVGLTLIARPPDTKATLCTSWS
# T5: SHANK1, Q9Y566
# T5 sequence (Q9Y566 658-767, limits assumed, looked up): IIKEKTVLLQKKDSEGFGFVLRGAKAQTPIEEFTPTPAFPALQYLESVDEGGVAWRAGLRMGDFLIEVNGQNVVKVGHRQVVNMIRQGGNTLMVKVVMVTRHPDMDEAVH
# T6: GRIP1_5, Q9Y3R0
# T6 sequence (Q9Y3R0 568-668, limits assumed, looked up): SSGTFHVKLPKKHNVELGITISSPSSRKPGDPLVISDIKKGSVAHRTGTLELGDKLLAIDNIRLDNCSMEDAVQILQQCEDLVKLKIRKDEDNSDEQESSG
# T7: NHERF3_3, Q5T2W1
# T7 sequence (Q5T2W1 238-333, limits assumed, looked up): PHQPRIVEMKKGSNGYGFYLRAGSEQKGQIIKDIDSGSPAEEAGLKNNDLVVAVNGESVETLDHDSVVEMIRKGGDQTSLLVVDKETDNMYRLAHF
# T8: LNX2_2, Q8N448
# T8 sequence (Q8N448 334-432, limits assumed, looked up): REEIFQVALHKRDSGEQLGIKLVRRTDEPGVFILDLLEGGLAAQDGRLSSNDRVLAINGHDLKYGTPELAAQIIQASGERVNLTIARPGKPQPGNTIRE
# T9: DFNB31_3, Q9P202
# T9 sequence (Q9P202 811-907, limits assumed, looked up): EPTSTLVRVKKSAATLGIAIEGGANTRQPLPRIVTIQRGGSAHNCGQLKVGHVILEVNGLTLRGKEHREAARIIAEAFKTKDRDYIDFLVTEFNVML
# T10: NHERF3_1, Q5T2W1
# T10 sequence (Q5T2W1 4-100, limits assumed, looked up): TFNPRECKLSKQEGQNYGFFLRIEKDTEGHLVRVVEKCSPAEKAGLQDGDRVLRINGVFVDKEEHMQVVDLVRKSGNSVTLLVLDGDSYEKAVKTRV
# Assays:
# Experiment in all cases: holdup assay
# Set-up in all cases: key: below the threshold = too weak to quantify, mostly under pKd 3.1 to 4
# Details in all cases: plain residues with an end cap or a label only (N-terminal biotin on a linker: ado-ado)
# PCLO, Q9Y6V0 = target: T1, PCLO, Q9Y6V0
# Inadl_8, Q8NI35 = target: Inadl_8, Q8NI35
# Chain of Inadl_8, Q8NI35 (Q8NI35 1425-1530): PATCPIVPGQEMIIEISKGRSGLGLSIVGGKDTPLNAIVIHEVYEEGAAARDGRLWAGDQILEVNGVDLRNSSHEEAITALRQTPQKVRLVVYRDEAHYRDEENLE
# MAGI2_6, Q86UL8 = target: MAGI2_6, Q86UL8
# Chain of MAGI2_6, Q86UL8 (Q86UL8 1141-1229): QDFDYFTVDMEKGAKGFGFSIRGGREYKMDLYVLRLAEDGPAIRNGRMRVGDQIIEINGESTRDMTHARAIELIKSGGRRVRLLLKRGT
# TJP3_3, O95049 = target: T2, TJP3_3, O95049
# NHERF4_1, Q86UT5-2 = target: NHERF4_1, Q86UT5-2
# Chain of NHERF4_1, Q86UT5-2 (Q86UT5 other isoform, or with tags, fused parts or gaps): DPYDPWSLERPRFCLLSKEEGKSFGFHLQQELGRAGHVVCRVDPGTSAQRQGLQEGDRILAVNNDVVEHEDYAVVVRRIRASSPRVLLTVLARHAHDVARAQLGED
# TJP1_3, Q07157 = target: TJP1_3, Q07157
# Chain of TJP1_3, Q07157 (Q07157 416-512): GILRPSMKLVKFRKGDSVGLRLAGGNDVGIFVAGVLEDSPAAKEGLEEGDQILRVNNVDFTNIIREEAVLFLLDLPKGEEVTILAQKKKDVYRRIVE
# PICK1, Q9NRD5 = target: PICK1, Q9NRD5
# Chain of PICK1, Q9NRD5 (Q9NRD5 17-115): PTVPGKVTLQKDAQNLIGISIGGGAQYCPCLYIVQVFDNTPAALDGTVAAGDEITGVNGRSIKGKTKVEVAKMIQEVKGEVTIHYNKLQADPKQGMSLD
# MPP2, Q14168 = target: T3, MPP2, Q14168
# IL16_1, Q14005 = target: IL16_1, Q14005
# Chain of IL16_1, Q14005 (Q14005 210-306): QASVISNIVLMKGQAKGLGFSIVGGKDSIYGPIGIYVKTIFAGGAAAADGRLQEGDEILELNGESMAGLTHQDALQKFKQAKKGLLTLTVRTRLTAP
# DLG4_2, P78352 = target: DLG4_2, P78352
# Chain of DLG4_2, P78352 (P78352 155-259): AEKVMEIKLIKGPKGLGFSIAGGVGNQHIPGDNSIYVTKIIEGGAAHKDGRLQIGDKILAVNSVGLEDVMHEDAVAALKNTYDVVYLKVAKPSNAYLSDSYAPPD
# TIAM2, Q8IVF5 = target: T4, TIAM2, Q8IVF5
# DLG5_1, Q8TDM6 = target: DLG5_1, Q8TDM6
# Chain of DLG5_1, Q8TDM6 (Q8TDM6 617-713): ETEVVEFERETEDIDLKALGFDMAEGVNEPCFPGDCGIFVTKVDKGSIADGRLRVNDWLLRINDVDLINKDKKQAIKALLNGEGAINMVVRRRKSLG
# SHANK1, Q9Y566 = target: T5, SHANK1, Q9Y566
# FRMPD2_3, Q68DX3 = target: FRMPD2_3, Q68DX3
# Chain of FRMPD2_3, Q68DX3 (Q68DX3 1073-1166): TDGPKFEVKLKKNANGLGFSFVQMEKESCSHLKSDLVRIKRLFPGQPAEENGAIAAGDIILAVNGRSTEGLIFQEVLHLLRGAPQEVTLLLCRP
# NOS1, P29475 = target: NOS1, P29475
# Chain of NOS1, P29475 (P29475 9-101): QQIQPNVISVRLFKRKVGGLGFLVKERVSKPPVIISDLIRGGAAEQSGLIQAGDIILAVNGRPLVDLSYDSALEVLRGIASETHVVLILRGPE
# GRIP1_5, Q9Y3R0 = target: T6, GRIP1_5, Q9Y3R0
# PTPN3, P26045 = target: PTPN3, P26045
# Chain of PTPN3, P26045 (P26045 505-587): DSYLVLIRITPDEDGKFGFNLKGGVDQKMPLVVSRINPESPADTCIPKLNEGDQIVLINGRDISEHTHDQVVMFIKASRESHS
# NHERF3_3, Q5T2W1 = target: T7, NHERF3_3, Q5T2W1
# LNX2_2, Q8N448 = target: T8, LNX2_2, Q8N448
# DLG4_1, P78352 = target: DLG4_1, P78352
# Chain of DLG4_1, P78352 (P78352 62-152): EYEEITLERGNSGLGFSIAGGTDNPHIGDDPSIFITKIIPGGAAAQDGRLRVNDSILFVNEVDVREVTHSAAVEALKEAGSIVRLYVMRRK
# GORASP1, Q9BQQ3 = target: GORASP1, Q9BQQ3
# Chain of GORASP1, Q9BQQ3 (Q9BQQ3 1-208): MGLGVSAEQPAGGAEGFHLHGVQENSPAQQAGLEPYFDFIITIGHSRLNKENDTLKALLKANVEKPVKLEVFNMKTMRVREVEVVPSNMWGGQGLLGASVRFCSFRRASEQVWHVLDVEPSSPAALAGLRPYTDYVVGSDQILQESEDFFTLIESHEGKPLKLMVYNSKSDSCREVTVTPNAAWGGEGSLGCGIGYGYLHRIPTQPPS
# MAGI2_2, Q86UL8 = target: MAGI2_2, Q86UL8
# Chain of MAGI2_2, Q86UL8 (Q86UL8 410-522): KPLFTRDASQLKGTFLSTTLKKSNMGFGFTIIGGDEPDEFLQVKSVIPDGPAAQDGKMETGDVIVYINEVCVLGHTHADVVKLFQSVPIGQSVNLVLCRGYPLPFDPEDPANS
# GRID2IP_1, A4D2P6 = target: GRID2IP_1, A4D2P6
# Chain of GRID2IP_1, A4D2P6 (A4D2P6 1-87): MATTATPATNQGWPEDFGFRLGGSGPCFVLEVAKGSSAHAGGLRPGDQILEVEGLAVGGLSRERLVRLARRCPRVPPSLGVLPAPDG
# DFNB31_3, Q9P202 = target: T9, DFNB31_3, Q9P202
# NHERF3_1, Q5T2W1 = target: T10, NHERF3_1, Q5T2W1
# Inadl_6, Q8NI35 = target: Inadl_6, Q8NI35
# Chain of Inadl_6, Q8NI35 (Q8NI35 1058-1167): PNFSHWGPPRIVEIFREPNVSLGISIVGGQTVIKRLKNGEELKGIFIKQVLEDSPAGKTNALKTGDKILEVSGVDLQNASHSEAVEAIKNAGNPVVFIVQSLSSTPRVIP
# DLG2_2, Q15700 = target: DLG2_2, Q15700
# Chain of DLG2_2, Q15700 (Q15700 189-283): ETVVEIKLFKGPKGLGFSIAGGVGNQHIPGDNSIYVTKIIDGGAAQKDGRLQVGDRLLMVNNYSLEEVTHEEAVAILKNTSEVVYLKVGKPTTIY
"pKd (PCLO, Q9Y6V0)","pKd (Inadl_8, Q8NI35)","pKd (MAGI2_6, Q86UL8)","pKd (TJP3_3, O95049)","pKd (NHERF4_1, Q86UT5-2)","pKd (TJP1_3, Q07157)","pKd (PICK1, Q9NRD5)","pKd (MPP2, Q14168)","pKd (IL16_1, Q14005)","pKd (DLG4_2, P78352)","pKd (TIAM2, Q8IVF5)","pKd (DLG5_1, Q8TDM6)","pKd (SHANK1, Q9Y566)","pKd (FRMPD2_3, Q68DX3)","pKd (NOS1, P29475)","pKd (GRIP1_5, Q9Y3R0)","pKd (PTPN3, P26045)","pKd (NHERF3_3, Q5T2W1)","pKd (LNX2_2, Q8N448)","pKd (DLG4_1, P78352)",Binder,other results
below the threshold,below the threshold,below the threshold,below the threshold,4.07,below the threshold,below the threshold,below the threshold,below the threshold,4.04,below the threshold,below the threshold,4.91,below the threshold,3.71,below the threshold,3.85,4.28,below the threshold,3.82,"WAKEKQHTRL [SLC17A1, Q14916]","pKd (GORASP1, Q9BQQ3): below the threshold; pKd (MAGI2_2, Q86UL8): 4.71; pKd (GRID2IP_1, A4D2P6): below the threshold; pKd (DFNB31_3, Q9P202): below the threshold; pKd (NHERF3_1, Q5T2W1): 4.73; pKd (Inadl_6, Q8NI35): below the threshold; pKd (DLG2_2, Q15700): 3.82"
below the threshold,below the threshold,below the threshold,3.51,3.54,3.48,4.15,below the threshold,below the threshold,4.09,4.05,4.06,3.78,below the threshold,below the threshold,3.54,4.07,below the threshold,below the threshold,below the threshold,"AHGSTRDQSI [KCNB1, Q14721]","pKd (GORASP1, Q9BQQ3): below the threshold; pKd (MAGI2_2, Q86UL8): below the threshold; pKd (GRID2IP_1, A4D2P6): below the threshold; pKd (DFNB31_3, Q9P202): 3.77; pKd (NHERF3_1, Q5T2W1): below the threshold; pKd (Inadl_6, Q8NI35): below the threshold; pKd (DLG2_2, Q15700): 3.86"
below the threshold,3.62,below the threshold,below the threshold,below the threshold,below the threshold,below the threshold,below the threshold,4.02,4.01,3.94,below the threshold,below the threshold,below the threshold,below the threshold,below the threshold,below the threshold,below the threshold,4.26,below the threshold,"GVHSNDHSVV [LPAR1, Q92633]","pKd (GORASP1, Q9BQQ3): 3.48; pKd (MAGI2_2, Q86UL8): 3.69; pKd (GRID2IP_1, A4D2P6): below the threshold; pKd (DFNB31_3, Q9P202): below the threshold; pKd (NHERF3_1, Q5T2W1): below the threshold; pKd (Inadl_6, Q8NI35): below the threshold; pKd (DLG2_2, Q15700): 3.74"
below the threshold,below the threshold,4.78,below the threshold,3.9,below the threshold,below the threshold,below the threshold,below the threshold,below the threshold,3.59,below the threshold,3.84,below the threshold,below the threshold,below the threshold,3.89,below the threshold,below the threshold,below the threshold,"FLVTEFNVML [DFNB31, Q9P202]","pKd (GORASP1, Q9BQQ3): 4.32; pKd (MAGI2_2, Q86UL8): below the threshold; pKd (GRID2IP_1, A4D2P6): below the threshold; pKd (DFNB31_3, Q9P202): below the threshold; pKd (NHERF3_1, Q5T2W1): 4.88; pKd (Inadl_6, Q8NI35): below the threshold; pKd (DLG2_2, Q15700): below the threshold"
below the threshold,below the threshold,below the threshold,below the threshold,below the threshold,below the threshold,below the threshold,below the threshold,below the threshold,4.23,3.99,below the threshold,below the threshold,below the threshold,below the threshold,below the threshold,4.32,below the threshold,4.04,3.65,"YAEKRMLTEV [KCNA6, P17658]","pKd (GORASP1, Q9BQQ3): below the threshold; pKd (MAGI2_2, Q86UL8): 4.33; pKd (GRID2IP_1, A4D2P6): below the threshold; pKd (DFNB31_3, Q9P202): 4.15; pKd (NHERF3_1, Q5T2W1): below the threshold; pKd (Inadl_6, Q8NI35): below the threshold; pKd (DLG2_2, Q15700): 4.15"
below the threshold,3.5,3.67,4.81,3.5,3.95,below the threshold,below the threshold,3.79,below the threshold,4.83,below the threshold,below the threshold,below the threshold,4.09,below the threshold,4.1,below the threshold,5.28,below the threshold,"PALKNGQYWV [CSPG4, Q6UVK1]","pKd (GORASP1, Q9BQQ3): 5.29; pKd (MAGI2_2, Q86UL8): below the threshold; pKd (GRID2IP_1, A4D2P6): below the threshold; pKd (DFNB31_3, Q9P202): below the threshold; pKd (NHERF3_1, Q5T2W1): below the threshold; pKd (Inadl_6, Q8NI35): below the threshold; pKd (DLG2_2, Q15700): below the threshold"
